Test results reported in patent publication US20160376632A1, “KINASE ACTIVITY DETECTION METHODS” (REGENTS OF THE UNIVERSITY OF MINNESOTA, priority 2014, published 2016).
*1 amine or outer side, *2 acyl side, *3 side chain or, on linkers, in order; H or OH if unused. [ ]: non-standard residue; d: D form. The star is where a group is joined. Kb = biotinyl-L-lysine, O=C(CCCC[C@@H]1SC[C@@H]2NC(=O)N[C@@H]21)NCCCC[C@H](N[*:1])C(=O)[*:2]; 5FAM = O=C1OC2(c3ccc(O)cc3Oc3cc(O)ccc32)c2ccc(C(=O)*)cc21; Ahx = NCCCCCC(=O)O

What was measured:
[1] = Determination of LRET distance from Tb3+ luminescence lifetimes; format: physicochemical; conditions: for Energy Transfer: E from lifetimes; for Ro: Förster distance; for τDA: Tb3+ luminescence lifetime of donor in presence of acceptor fluorophore; for τD: Tb3+ luminescence lifetime of donor without acceptor fluorophore; for R: estimated distance between Tb3+ and fluorophore
Excerpt: The Tb^3+ luminescence lifetimes of the biosensors in their fluorophore conjugated and unconjugated forms were used to characterize the energy transfer and LRET parameters for each sensor (FIGS. 12A, 12B and 12C). LRET follows the same principles as FRET and can have the same theory applied to calculate the distance between the fluorophore acceptor and the terbium-peptide complex donor pair. The fundamental concept of Förster theory is resonance energy transfer is proportional to
where the percentage of energy transfer, E, can be determined from the lifetime measurements of the donor in the absence of the acceptor (peptide-terbium complex (donor) without the conjugated fluorophore (acceptor)) and the donor in the presence of the acceptor.
R0 the Förster distance is determined for each acceptor/donor pair and d
The luminescence decay rates peptide biosensor-Tb^3+ complexes with and without fluorophore conjugation are illustrated in FIG. 12A pSAStide-AF488:Tb^3+, FIG. 12B pSAStide-Cy5 and FIG. 12C 5-FAM-pSFAStide-A. Data represent the average±SEM of three individual replicates.

[2] = target: Lyn (Homo sapiens, UniProt P07948); assay: ELISA-based chemifluorescent detection of substrate phosphorylation, Lyn; format: biochemical; conditions: anti-phosphotyrosine 4G10, Amplex Red
Procedure: (§1) Phosphorylation of SAStide and SFAStide-A were detected using a chemifluorescent ELISA-based assay (Lipchik et al. J Am Chem. Soc 2015, 137, 2484) in which the reaction mixture was quenched using EDTA and incubated in a 96-well neutravidin coated-plate to allow for affinity capture of the biotinylated substrates individually. The total amount of peptide in the quenched reaction mixture applied to each well was 37.5 pmol, which ensured that each well was saturated with peptide (15 pmol binding capacity) for analysis. The captured peptide was then incubated an anti-phosphotyrosine primary antibody (4G10) followed by a horseradish peroxidase-conjugated secondary antibody. Chemifluorescent detection was accomplished by incubating each well with Amplex Red reagent and hydrogen peroxide in phosphate buffer, which gave a fluorescent signal proportional to the amount of horseradish peroxidase-conjugated antibody in each well, and thus reports the degree of phosphotyrosine present.
(§2) The Validation of in vitro specificity of SAStide-Cy5 and 5-FAM-SFAStide-A using ELISA-based chemifluorescence is illustrated in FIG. 14. […] Aliquots were removed at designated time points, quenched with EDTA and alongside the TR-LRET detection as described in FIGS. 3A-F in the main text, the amount of phosphorylated substrate was also measured using ELISA-based detection.

[3] = target: T1, Syk (Homo sapiens, UniProt P43405); assay: ELISA-based chemifluorescent detection of substrate phosphorylation, Syk; format: biochemical; conditions: anti-phosphotyrosine 4G10, Amplex Red
T1 construct: EGFP (C)
Procedure: as §1, §2

Sequence of Lyn (P07948 whole entry, species assumed): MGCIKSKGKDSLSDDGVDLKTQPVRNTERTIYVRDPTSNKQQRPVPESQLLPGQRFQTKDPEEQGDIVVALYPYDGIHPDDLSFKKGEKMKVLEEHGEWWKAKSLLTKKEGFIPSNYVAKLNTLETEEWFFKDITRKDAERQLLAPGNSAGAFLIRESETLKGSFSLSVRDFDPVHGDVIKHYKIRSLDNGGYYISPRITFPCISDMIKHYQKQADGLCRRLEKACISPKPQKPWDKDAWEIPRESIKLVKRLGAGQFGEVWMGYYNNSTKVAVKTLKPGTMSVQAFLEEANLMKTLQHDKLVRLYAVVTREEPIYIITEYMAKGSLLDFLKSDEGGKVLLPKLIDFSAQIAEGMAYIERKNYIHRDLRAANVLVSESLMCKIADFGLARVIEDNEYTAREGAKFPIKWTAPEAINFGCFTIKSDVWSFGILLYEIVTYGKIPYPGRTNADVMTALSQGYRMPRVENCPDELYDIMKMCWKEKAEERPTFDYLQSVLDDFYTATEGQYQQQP

Row | phosphorylation of the substrate by Lyn in vitro [2] | phosphorylation of the substrate by Syk in vitro [3] | Substance | J [1] | Quantum Yield [1] | Energy Transfer [1] | Ro [1] | τDA [1] | τD [1] | R [1]
1 | phosphorylated | – | 5-FAM-Ahx-GGEEDEDIYEELDEPGGKbGG ({5FAM-Ahx}-GGEEDEDIYEELDEPGG[Kb]GG-NH2) [5-FAM-SFAStide-A, Src-family kinase peptide biosensor labelled with 5-carboxyfluorescein] | 9.62 × 10^14 M^−1 cm^−1 nm^4 | 0.21 | 0.89 | 56.0 Å | 0.071 ms | 0.64 ms | 39.5 Å
2 | – | phosphorylated | GGDEEDYEEPDEPGGCCy5GG [SAStide-Cy5] | 5.4 × 10^13 M^−1 cm^−1 nm^4 | 0.34 | 0.88 | 55.1 Å | 0.088 ms | 0.72 ms | 39.5 Å
